Two molecules from publication PMC4860839, “Structures of the APC–ARM domain in complexes with discrete Amer1/WTX fragments reveal that it uses a consensus mode to recognize its binding partners” (Cell Discovery, 2015) can be followed below.

In assay [1] the target is FL Amer1/WTX (pcDNA-Flag-Amer1) (not stated (human or mouse cDNA cloned)) (UniProt Q5JTC6). Nature of the assay: co-IP; HEK293T cells transiently transfected; immunoprecipitation with anti-GFP or anti-FLAG M2 beads, western blot. (In western blotting, separated proteins are transferred to a membrane and probed.)
Sequence of FL Amer1/WTX (pcDNA-Flag-Amer1) (not stated (human or mouse cDNA cloned)) (Q5JTC6 whole entry): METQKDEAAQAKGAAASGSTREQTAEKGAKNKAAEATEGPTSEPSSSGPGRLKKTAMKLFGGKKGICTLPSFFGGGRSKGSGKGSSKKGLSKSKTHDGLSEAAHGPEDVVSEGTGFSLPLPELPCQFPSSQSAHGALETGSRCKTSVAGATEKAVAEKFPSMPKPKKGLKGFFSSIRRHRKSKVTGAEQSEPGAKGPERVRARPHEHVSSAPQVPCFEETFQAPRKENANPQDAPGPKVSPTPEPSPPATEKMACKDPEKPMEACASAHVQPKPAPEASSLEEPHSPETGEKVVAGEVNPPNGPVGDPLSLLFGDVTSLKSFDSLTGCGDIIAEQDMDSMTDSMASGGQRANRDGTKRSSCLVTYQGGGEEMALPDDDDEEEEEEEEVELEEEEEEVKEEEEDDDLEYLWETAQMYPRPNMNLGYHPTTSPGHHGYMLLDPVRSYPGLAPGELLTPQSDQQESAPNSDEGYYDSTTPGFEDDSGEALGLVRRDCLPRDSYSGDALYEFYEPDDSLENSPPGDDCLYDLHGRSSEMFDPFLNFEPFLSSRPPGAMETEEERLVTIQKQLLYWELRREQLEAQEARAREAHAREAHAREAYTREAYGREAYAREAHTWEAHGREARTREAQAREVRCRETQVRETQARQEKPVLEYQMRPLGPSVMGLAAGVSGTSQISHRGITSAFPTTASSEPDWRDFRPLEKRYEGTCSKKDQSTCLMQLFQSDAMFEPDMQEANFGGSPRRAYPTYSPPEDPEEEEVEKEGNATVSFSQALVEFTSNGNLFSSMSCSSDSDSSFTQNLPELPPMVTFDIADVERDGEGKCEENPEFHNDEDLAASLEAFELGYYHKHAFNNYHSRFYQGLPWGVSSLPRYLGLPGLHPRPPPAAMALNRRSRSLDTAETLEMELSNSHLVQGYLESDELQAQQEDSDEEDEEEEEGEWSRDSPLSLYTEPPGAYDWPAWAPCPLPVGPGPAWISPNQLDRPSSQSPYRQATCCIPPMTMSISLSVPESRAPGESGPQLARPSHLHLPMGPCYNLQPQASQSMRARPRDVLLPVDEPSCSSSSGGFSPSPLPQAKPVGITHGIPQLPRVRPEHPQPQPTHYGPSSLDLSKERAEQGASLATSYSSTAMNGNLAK
In assay [2] the target is T1, APC–ARM, human APC (407–751), N-terminally His-tagged (human, UniProt P25054 407-751).
T1 construct: human APC, armadillo repeat (ARM) domain, residues 407–751; source: E. coli BL21(DE3), purified (Ni2+-NTA, Superdex200)
T1 sequence (looked up): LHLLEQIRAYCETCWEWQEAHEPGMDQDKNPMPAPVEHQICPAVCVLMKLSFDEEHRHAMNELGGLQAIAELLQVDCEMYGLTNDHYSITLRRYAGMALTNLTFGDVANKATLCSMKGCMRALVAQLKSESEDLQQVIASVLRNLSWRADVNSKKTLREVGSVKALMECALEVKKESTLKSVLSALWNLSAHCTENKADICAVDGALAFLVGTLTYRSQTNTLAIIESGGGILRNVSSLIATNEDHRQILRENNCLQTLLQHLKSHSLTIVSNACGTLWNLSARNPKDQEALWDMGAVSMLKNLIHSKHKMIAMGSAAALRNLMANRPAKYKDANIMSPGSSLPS
The experiment in a line: pull-down; competition: GST-Amer1-A2/APC–ARM complex (0.5 mg/ml, 4 ml) preloaded on the GST column at 4 °C; 0.1, 0.2, 0.5, 1 mg/ml Asef ABR-SH3 (0.5 ml) added; SDS–PAGE, Coomassie. To be noted: both partners purified.

On to “pEGFP-APC–ARM-K516E/M717K double mutant (domain or fragment)”, for which the reduction of association against wild type APC–ARM (densitometry) in assay [1] amounted to 60%.

B1: Asef-ABR-SH3 (residues 170–271) (domain or fragment, human, UniProt Q9NR80 170-271, looked up)
chain: SSSHHYSHPGGGGEQLAINELISDGSVVCAEALWDHVTMDDQELGFKAGDVIEVMDATNREWWWGRVADGEGWFPASFVRLRVNQDEPADDDAPLAGNSGAE
notes: Added as a protein at stated concentrations; its expression and purification are not described; also called ABR-SH3 domain of Asef
Turning to B1, the binding result in assay [2] is recorded as “binds”.
